The labels stand for the following.
B1: H4L1 (antibody, V domains shown)
VH: QVQLQQSGAEVKKPGASVKMSCKASGYTFTRYTMHWVRQAPGQGLEWIGYINPSRGYTNYNQKFKDRVTLTTDTSISTAYMELSRLRSDDTAVYYCARYYDDHYSLDYWGQGTTLTVSS
VL: DIQMTQSPSSLSASVGDRVTMTCSASSSVSYMNWYQQKPGKAPKRLIYDTSKLASGVPSRFSGSGSGTDFTLTISSLQPEDFATYYCQQWSSNPFTFGSGTKLEINR
B2: H3L3 (antibody, V domains shown)
VH: B1 VH with Q5V, V68A, L70M, T74K
VL: B1 VL with M4L, M21I, R45L, F70Y
B3: H4L4 (antibody, V domains shown)
VH: B1 VH
VL: B1 VL with M4L, M21I, R45L, L77M
B4: H4L6 (antibody, V domains shown)
VH: B1 VH
VL: B1 VL with M21I, R45L, L46W, F70Y
B5: H4L3 (antibody, V domains shown)
VH: B1 VH
VL: B1 VL with M4L, M21I, R45L, F70Y
B6: H3L1 (antibody, V domains shown)
VH: B1 VH with Q5V, V68A, L70M, T74K
VL: B1 VL
B7: H2L6 (antibody, V domains shown)
VH: B1 VH with K12A, M20V, I48M, V68A, T72R, T74K
VL: B1 VL with M21I, R45L, L46W, F70Y
B8: H3L6 (antibody, V domains shown)
VH: B1 VH with Q5V, V68A, L70M, T74K
VL: B1 VL with M21I, R45L, L46W, F70Y
B9: H2L3 (antibody, V domains shown)
VH: B1 VH with K12A, M20V, I48M, V68A, T72R, T74K
VL: B1 VL with M4L, M21I, R45L, F70Y
B10: H4L2 (antibody, V domains shown)
VH: B1 VH
VL: B1 VL with R45L, L77M
B11: H3L5 (antibody, V domains shown)
VH: B1 VH with Q5V, V68A, L70M, T74K
VL: B1 VL with M21I, L46W
B12: H3L2 (antibody, V domains shown)
VH: B1 VH with Q5V, V68A, L70M, T74K
VL: B1 VL with R45L, L77M
B13: H4L5 (antibody, V domains shown)
VH: B1 VH
VL: B1 VL with M21I, L46W
B14: H2L4 (antibody, V domains shown)
VH: B1 VH with K12A, M20V, I48M, V68A, T72R, T74K
VL: B1 VL with M4L, M21I, R45L, L77M
B15: H3L4 (antibody, V domains shown)
VH: B1 VH with Q5V, V68A, L70M, T74K
VL: B1 VL with M4L, M21I, R45L, L77M
B16: H2L1 (antibody, V domains shown)
VH: B1 VH with K12A, M20V, I48M, V68A, T72R, T74K
VL: B1 VL
B17: H2L2 (antibody, V domains shown)
VH: B1 VH with K12A, M20V, I48M, V68A, T72R, T74K
VL: B1 VL with R45L, L77M
B18: H2L5 (antibody, V domains shown)
VH: B1 VH with K12A, M20V, I48M, V68A, T72R, T74K
VL: B1 VL with M21I, L46W

Substitutions are numbered along the chain they refer to.

The term Kd denotes the concentration at which binding is half-saturated. Low readings indicate higher affinity, high ones lower affinity. What is called koff is the rate constant with which the complex falls apart. Low readings indicate slow dissociation, high ones fast dissociation. Broadly, the kon is the second-order rate constant of association.

The target in the assay is CD3 (antigen of the binding affinity table of Example 1) (UniProt P07766). Description: kinetic fit with two-state parameters; method not given.
OKT3-chimeric (antibody) gave a Kd of 0.622 nM, a ka2 of 0.0105 s⁻¹, a kd2 of 0.00194 s⁻¹ and a koff of 0.138 s⁻¹. In addition, the kon stood at 3.44e+07 M⁻¹ s⁻¹.

The molecule B1 showed a Kd of 7.49 nM, a ka2 of 0.0282 s⁻¹, a kd2 of 0.0023 s⁻¹ and a koff of 0.176 s⁻¹. This molecule also showed a kon of 1.77e+06 M⁻¹ s⁻¹.

The molecule B2 registered a Kd of 1.38 nM, a ka2 of 0.0191 s⁻¹, a kd2 of 0.000815 s⁻¹ and a koff of 0.402 s⁻¹. For the same molecule, the kon worked out at 1.19e+07 M⁻¹ s⁻¹.

The molecule B3 displayed a Kd of 13.9 nM, a ka2 of 0.0212 s⁻¹, a kd2 of 0.0023 s⁻¹ and a koff of 0.248 s⁻¹. Further, the kon was found to be 1.75e+06 M⁻¹ s⁻¹.

For B4, the dissociation constant Kd was 12.4 nM, the ka2 is 0.00534 s⁻¹, the kd2 amounted to 0.000594 s⁻¹ and the koff is 0.251 s⁻¹. This molecule returned a kon of 2.02e+06 M⁻¹ s⁻¹.

Consider B5, for which the dissociation constant (Kd) came out at 14.7 nM, the ka2 stood at 0.0205 s⁻¹, the kd2 came to 0.00238 s⁻¹ and the koff was 0.264 s⁻¹. Further, the kon came out at 1.88e+06 M⁻¹ s⁻¹.

The molecule B6 showed a Kd of 1.16 nM, a ka2 of 0.0229 s⁻¹, a kd2 of 0.000831 s⁻¹ and a koff of 0.155 s⁻¹. The kon amounted to 4.67e+06 M⁻¹ s⁻¹.

Molecule B7 showed a Kd of 5.68 nM, a ka2 of 0.0101 s⁻¹, a kd2 of 0.00581 s⁻¹ and a koff of 0.0638 s⁻¹. The molecule further gave a kon of 4.1e+06 M⁻¹ s⁻¹.

In turn, B8 showed a Kd of 8.84 nM, a ka2 of 0.00491 s⁻¹, a kd2 of 0.00243 s⁻¹ and a koff of 0.0814 s⁻¹. The same molecule showed a kon of 3.05e+06 M⁻¹ s⁻¹.

B9 registered a Kd of 0.619 nM, a ka2 of 0.0228 s⁻¹, a kd2 of 0.000719 s⁻¹ and a koff of 0.13 s⁻¹. The molecule further returned a kon of 6.42e+06 M⁻¹ s⁻¹.

For the molecule B10, the Kd amounted to 15.3 nM, the ka2 came to 0.026 s⁻¹, the kd2 was determined as 0.00294 s⁻¹ and the koff was 0.217 s⁻¹. Further, the kon is 1.44e+06 M⁻¹ s⁻¹.

B11 registered a Kd of 7.6 nM, a ka2 of 0.00709 s⁻¹, a kd2 of 0.00496 s⁻¹ and a koff of 0.0647 s⁻¹. Besides, the kon worked out at 3.51e+06 M⁻¹ s⁻¹.

As to B12, the Kd was determined as 1.75 nM, the ka2 was 0.0234 s⁻¹, the kd2 is 0.000939 s⁻¹ and the koff worked out at 0.139 s⁻¹. This molecule returned a kon of 3.06e+06 M⁻¹ s⁻¹.

For B13, the Kd was found to be 9.96 nM, the ka2 turned out to be 0.0041 s⁻¹, the kd2 amounted to 0.000744 s⁻¹ and the koff turned out to be 0.141 s⁻¹. The kon stood at 2.17e+06 M⁻¹ s⁻¹.

With B14, the Kd stood at 0.642 nM, the ka2 worked out at 0.0234 s⁻¹, the kd2 was 0.000671 s⁻¹ and the koff was 0.0814 s⁻¹. This molecule also showed a kon of 3.54e+06 M⁻¹ s⁻¹.

With B15, the Kd turned out to be 1.33 nM, the ka2 was determined as 0.0213 s⁻¹, the kd2 was found to be 0.000744 s⁻¹ and the koff was found to be 0.119 s⁻¹. Also, the kon stood at 3.03e+06 M⁻¹ s⁻¹.

Turning to B16, the Kd was determined as 0.808 nM, the ka2 was 0.026 s⁻¹, the kd2 was determined as 0.000779 s⁻¹ and the koff was determined as 0.0979 s⁻¹. This molecule displayed a kon of 3.52e+06 M⁻¹ s⁻¹.

Regarding B17, the Kd came out at 0.892 nM, the ka2 came out at 0.0268 s⁻¹, the kd2 was 0.000814 s⁻¹ and the koff is 0.0986 s⁻¹. This molecule registered a kon of 3.26e+06 M⁻¹ s⁻¹.

The molecule B18 showed a Kd of 2.55 nM, a ka2 of 0.0127 s⁻¹, a kd2 of 0.00369 s⁻¹ and a koff of 0.0567 s⁻¹. The same molecule returned a kon of 5.02e+06 M⁻¹ s⁻¹.

The values are drawn from patent publication US20230212289A1.
